# B1: VIR-7831 (the clinical form of S309-LS) (antibody, V domains shown)
# VH: not shown
# VL: EIVLTQSPGTLSLSPGERATLSCRASQTVSSTSLAWYQQKPGQAPRLLIYGASSRATGIPDRFSGSGSGTDFTLTISRLEPEDFAVYYCQQHDTSLTFGGGTKVEIK
# notes: also called sotrovimab; clinical lead variant of S309-LS; copies: 2 + 2
# B2: AZD8895 Fab (Fab, V domains shown)
# VH: QMQLVQSGPEVKKPGTSVKVSCKASGFTFMSSAVQWVRQARGQRLEWIGWIVIGSGNTNYAQKFQERVTITRDMSTSTAYMELSSLRSEDTAVYYCAAPYCSSISCNDGFDIWGQGTMVTVSS
# VL: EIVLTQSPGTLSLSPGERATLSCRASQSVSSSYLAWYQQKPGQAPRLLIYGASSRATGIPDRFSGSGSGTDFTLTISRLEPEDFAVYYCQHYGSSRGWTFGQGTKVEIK
# notes: also called tixagevimab; COV2-2196
# B3: AZD1061 Fab (Fab, V domains shown)
# VH: EVQLVESGGGLVKPGGSLRLSCAASGFTFRDVWMSWVRQAPGKGLEWVGRIKSKIDGGTTDYAAPVKGRFTISRDDSKNTLYLQMNSLKTEDTAVYYCTTAGSYYYDTVGPGLPEGKFDYWGQGTLVTVSS
# VL: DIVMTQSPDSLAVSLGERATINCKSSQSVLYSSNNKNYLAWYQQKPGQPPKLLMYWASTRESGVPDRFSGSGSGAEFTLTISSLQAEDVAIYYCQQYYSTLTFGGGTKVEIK
# notes: also called cilgavimab; COV2-2130
# Tests used:
# [1] = molecular target: T1, SARS-CoV-2 spike glycoprotein, Wuhan D614, Δ19 C-terminal truncation, on ExpiCHO-S cells (SARS-CoV-2 BetaCoV/Wuhan-Hu-1/2019 …, UniProt P0DTC2); test: flow cytometry on cells; settings: one partner purified
# T1 construct: also called Wuhan-D614 spike; Wuhan-1 D614
# [2] = molecular target: T2, SARS-CoV-2 spike glycoprotein, Omicron BA.1, Δ19 C-terminal truncation, on ExpiCHO-S cells (SARS-CoV-2, Omicron BA.1 (B.1.1.529), strain); test: flow cytometry on cells; settings: one partner purified
# T2 construct: also called BA.1 spike
# [3] = molecular target: T3, SARS-CoV-2 spike glycoprotein, Omicron BA.2, Δ19 C-terminal truncation, on ExpiCHO-S cells (SARS-CoV-2, Omicron BA.2, strain); test: flow cytometry on cells; settings: one partner purified
# T3 construct: also called BA.2 spike
# [4] = molecular target: T4, SARS-CoV-2 BA.1 RBD (residues 319–537, C-terminal AviTag and 8xHisTag) (SARS-CoV-2, Omicron BA.1 (B.1.1.529), strain); test: BLI; settings: both partners purified
# T4 construct: also called Omicron lineage RBD
# [5] = molecular target: T5, Purified SARS-CoV-2 BA.2 RBD protein (AcroBiosystem) (SARS-CoV-2, Omicron BA.2, strain); test: BLI; settings: both partners purified
# T5 construct: also called Omicron lineage RBD; source: bought: AcroBiosystem
Binder,binding result [1],binding result [2],binding result [3],binding result [4],binding result [5]
B1,binds,binds,binds,–,–
B2,–,–,–,binds,binds
B3,–,–,–,binds,binds

# Reference: publication PMC9250508 (Nature Communications, 2022)
